Data taken from paper PMC5206705 (Scientific Reports, 2017).

Target: the molecule itself
Assay: SEC; preparative Superdex 200 in 50 mM Tris pH 8.0, 125 mM sodium chloride; elution at approximately 80 kDa against a 44 kDa monomer

B1: β-ketoacyl-acyl carrier protein synthase FabF from Listeria monocytogenes (enzyme, UniProt A0A0B8RFI6 1-413, looked up)
chain: MDKRRVVVTGIGAVTPIGNDAETSWENAKKGVNGVAKMTRLNPDDFPVKIAAELKDFDVEKYLEKKEARKMDRFTHYAIASAEMAVQDSGLVIDDSNANRVGVWIGSGIGGMETFETQYEIFLNRGHRRVSPFFVPMMIPDMGSGQVSIRFGAKGINSTTVTACATATNSIGDAFKVIERGDADAMITGGAEAPITKMSLAGFTANKALSLNPDPETACRPFDKDRDGFIIGEGAGIVILEEYEHAKARGAKIYAEIVGYGATGDAYHITAPAPNGEGAARAMKMAIDDAGLTPDKVDYINAHGTSTPYNDEYETQAIKTVFGDHAKKLAISSTKSMTGHTLGASGGIEAIFALLTIRDNIIAPTIHLKNQDEVCDLDYVPNEAREANVNVVISNSFGFGGHNATLVFKRIED
notes: FabF (β-ketoacyl-ACP synthase II) of Listeria monocytogenes, amplified from genomic DNA ATCC 19115D-5 with primers from the start to the stop codon; the construct encoded the full length protein; monomer about 44 kDa; Vector pMCSG21 with a TEV site; a few residues of the site may remain at the N-terminus after cleavage (surmise); also called LmFabF; β-ketoacyl-ACP synthase II; source: E. coli …
  stoichiometry N: 2
